These are literature values, as cited in PMC4332414.

As a reminder, the Kd is the constant that tells how readily two partners part at equilibrium.

This data set concerns the target Collagen type II (UniProt P02458). Description: surface plasmon resonance. A general note: SPR reads the build-up and loss of mass on a sensor chip optically.

DDR2 DS domain, sequence (Q16832 30-185): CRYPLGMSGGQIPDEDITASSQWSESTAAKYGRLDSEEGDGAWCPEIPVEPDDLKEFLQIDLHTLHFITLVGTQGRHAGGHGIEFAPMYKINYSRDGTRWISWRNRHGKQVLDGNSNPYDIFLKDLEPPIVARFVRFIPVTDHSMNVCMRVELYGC
Collagen type II, sequence (P02458 182-1241): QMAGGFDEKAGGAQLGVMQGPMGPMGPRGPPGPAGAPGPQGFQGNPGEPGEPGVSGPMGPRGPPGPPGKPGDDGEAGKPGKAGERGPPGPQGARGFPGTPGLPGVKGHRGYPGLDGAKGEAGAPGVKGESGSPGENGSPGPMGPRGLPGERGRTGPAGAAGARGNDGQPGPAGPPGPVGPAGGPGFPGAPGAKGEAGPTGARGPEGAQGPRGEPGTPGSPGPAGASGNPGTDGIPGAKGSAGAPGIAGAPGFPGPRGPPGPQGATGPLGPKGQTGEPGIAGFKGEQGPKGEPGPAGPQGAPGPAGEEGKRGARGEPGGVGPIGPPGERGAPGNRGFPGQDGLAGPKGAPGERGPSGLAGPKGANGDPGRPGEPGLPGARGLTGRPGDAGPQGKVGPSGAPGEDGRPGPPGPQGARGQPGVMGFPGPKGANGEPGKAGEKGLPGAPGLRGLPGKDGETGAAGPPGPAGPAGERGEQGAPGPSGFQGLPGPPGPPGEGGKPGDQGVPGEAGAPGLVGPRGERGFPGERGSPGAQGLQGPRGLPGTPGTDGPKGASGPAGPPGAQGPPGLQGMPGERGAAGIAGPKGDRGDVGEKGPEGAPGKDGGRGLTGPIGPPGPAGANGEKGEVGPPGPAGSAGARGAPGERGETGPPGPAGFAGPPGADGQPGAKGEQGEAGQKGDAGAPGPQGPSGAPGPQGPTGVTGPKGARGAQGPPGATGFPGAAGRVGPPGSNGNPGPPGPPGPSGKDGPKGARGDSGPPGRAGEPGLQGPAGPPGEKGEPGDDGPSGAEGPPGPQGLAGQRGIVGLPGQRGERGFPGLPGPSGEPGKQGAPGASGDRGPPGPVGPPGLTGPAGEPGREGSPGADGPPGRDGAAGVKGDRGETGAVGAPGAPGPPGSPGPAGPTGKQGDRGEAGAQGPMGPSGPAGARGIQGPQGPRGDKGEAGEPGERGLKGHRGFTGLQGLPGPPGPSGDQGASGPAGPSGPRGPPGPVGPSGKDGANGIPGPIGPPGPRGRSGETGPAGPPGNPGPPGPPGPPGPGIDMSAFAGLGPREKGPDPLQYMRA

DDR2 DS domain (from UniProt Q16832): the Kd was 25 µM.
